Source: doi:10.1101/2024.07.10.602929
Blank lines part the entries; values can stand above or below the substance they belong to.

Legend:
Assay in all cases: biolayer interferometry, immobilised biotin-peptide
GABARAP = GABARAP (UniProt O95166); settings: reference: unphosphorylated LIR1 peptide
GABARAPL1 = GABARAPL1 (UniProt Q9H0R8); settings: reference: unphosphorylated LIR1 peptide; sites Y1092
LC3A = LC3A (UniProt Q9H492); settings: reference: unphosphorylated LIR1 peptide; sites Y1092
GABARAPL2 = GABARAPL2 (UniProt P60520); settings: reference: unphosphorylated LIR1 peptide; sites Y1092
LC3B = LC3B (UniProt Q9GZQ8); settings: reference: unphosphorylated LIR1 peptide; sites Y1092

- fold change (GABARAP; sites S1081): stronger
Substance: EGFR LIR1, 1076-1099 (from UniProt P00533) pS1081 LIR1 peptide

- binding against the reference (GABARAPL1): same
- binding against the reference (LC3A): same
- binding against the reference (GABARAPL2): same
- binding against the reference (GABARAP; sites Y1092): same
- binding against the reference (LC3B): same
Substance: EGFR LIR1, 1076-1099 (from UniProt P00533) pY1092 LIR1 peptide

- fold change (GABARAP; sites T1085): stronger
Substance: EGFR LIR1, 1076-1099 (from UniProt P00533) pT1085 LIR1 peptide

- fold change (GABARAP; sites S1081,T1085): stronger
Substance: EGFR LIR1, 1076-1099 (from UniProt P00533) pS1081/pT1085 LIR1 peptide
